Data as given in patent publication US20200157236A1 (CELLDEX THERAPEUTICS, published 2020).
Numbering of substitutions follows the chain as printed.

B1: Ab328 (antibody, V domains shown)
VH: QVQLQQSGAELAKPGASVKLSCKASGYTFTSYWMHWVKQRPGQGLEWIGYINPSSGYTKYNQKFKDKATLTADKSSSTAYMQLSSLTFEDSAVYYCARDYYGSSSWFAYWGQGTLVTVSA
VL: DIVMTQSQKFMSTSVGDRVSVTCKASQNVGTNVAWYQQKPGHSPKALIYSASYRYSGVPDRFTGSGSGTDFTLTISNVQSEDLAEYFCQRYNSYPYMFTFGGGTKLEIKR
notes: rodent hybridoma mAb
B2: Ab332 (antibody, V domains shown)
VH: EVQLQQSGPELVKPGTSVKISCKASGYTFTDYYMNWMKQSHGKSLEWIGDINPNNGVTSYNQKFKGKATLTVDKSSSTAYMELRSLTSEDSAVYYCAREDYGSNYFDYWGQGTTLTVSS
VL: DIVLTQSPASLAVSLGQRATISCKASQSVDYDGDSYMNWYQQKPGQPPKLLIYAASNLESGIPARLSGSGSGTDFTLNIHPVEEEDAATYYCQQSNEDPPTFGGGTKLEIRR
notes: rodent hybridoma mAb
B3: Ab329 (antibody, V domains shown)
VH: QVQLKESGPGLVKPSATLSLTCTVSGFSLTSYHVCWIRQTPGKGLEWMGVIWGDGRTTYNPPLKSRLSISRDTSKSQVFLKMSSLKTEDTATYYCARATMTGHGDAWGQGASVTVSS
VL: DIQMTQSPASLSASLEEIVTITCQASQDIDNYLSWYQQKPGKSPHLLIHSATSLADGVPSRFSGGRSGTQFSLKINRLQVEDTGIYYCLQHYSGWTFGGGTKLELKR
notes: rodent hybridoma mAb
B4: Ab330 (antibody, V domains shown)
VH: EVQVVETGGGVVQPGKSLEITCATSGLTFSTAWMYWVRQSSDRRLEWIARIKDKSNKFASDYVESVRGRFTISRDDSRSSVYLQMNNLKEEDTATYYCTTSYGYAWGQGVMVTVSS
VL: DIQMTQSPSSMSASLGDRVTITCQASQDIGNYLIWFQQKPGKSPRPLIYYATNLANGVPSRFSGSRSGSEYSLTITSLESEDMADYHCLQYKQHLTFGSGTKLEIER
notes: rodent hybridoma mAb
B5: Ab320 (antibody, V domains shown)
VH: QVQLQQSGAELVKPGASVKISCKASGYAFSSYWMNWVKQRPGKGLEWIGQIYPGDGDTNYNGKFKGKATLTADKSSSTAYMQLSSLTSEDSAVYFCASYYYGSKAYWGQGTLVTVSA
VL: DIQMTQSPASLAASVGETVTITCRASENIYYSLAWYQQKQGKSPQLLIYNANSLEDGVPSRFSGSGSGTQYSMKINSMQPEDTATYFCKQAYDVPFTFGSGTKLEIKR
notes: rodent hybridoma mAb
B6: Ab418 (antibody, V domains shown)
VH: EVQLVQSGAEVKKPGASVKLSCKASGYTFTSYWMHWVRQAPGQGLEWIGYIKPSSGYTKYAQKLQGRVTLTADKSTSTAYMELRSLRSDDTAVYYCARDYYGSSSWFAYWGQGTLVTVSS
VL: EIVMTQSQATLSTSPGERATLSCKASQNVGTNVAWYQQKPGQAPRALIYSASYRYSGVPARFSGSGSGTDFTLTISSVEPEDFAVYYCQQYNSYPYMYTFGQGTKLEIK
notes: humanized
B7: Ab436 (antibody, V domains shown)
VH: EVQLVQSGPEVKKPGTSVKLSCKASGYTFTSYWMHWVRQARGQRLEWIGYIKPSSGYTKYNQKFKDRATLTADKSTSTAYMELSSLRSEDTAVYYCARDYYGSSSWFAYWGQGTLVTVSS
VL: B6 VL with L11M, P15V, A43S, R45K, S50G, Y53T, Y55A, S56T
notes: humanized
B8: Ab442 (antibody, V domains shown)
VH: B6 VH
VL: B6 VL with L11M, P15V, A43S, R45K, S50G, Y53T, Y55A, S56T
notes: humanized
B9: Ab434 (antibody, V domains shown)
VH: B6 VH with A16S, T30S, R38K, L64F, R84S, D89E
VL: B6 VL with Q8P, K24R, N28S, G30S, T31S, V33L
notes: humanized
B10: Ab426 (antibody, V domains shown)
VH: B7 VH with P9A, N61A, K65Q, D66E, A68V
VL: B6 VL with Q8P, K24R, N28S, G30S, T31S, V33L
notes: humanized
B11: Ab406 (antibody, V domains shown)
VH: B6 VH
VL: B6 VL with L11M, P15V, A43S, R45K
notes: humanized
B12: Ab446 (antibody, V domains shown)
VH: B6 VH with A16S, T30S, R38K, L64F, R84S, D89E
VL: B6 VL with L11M, P15V, A43S, R45K, S50G, Y53T, Y55A, S56T
notes: humanized
B13: Ab438 (antibody, V domains shown)
VH: B7 VH with P9A, N61A, K65Q, D66E, A68V
VL: B6 VL with L11M, P15V, A43S, R45K, S50G, Y53T, Y55A, S56T
notes: humanized
B14: Ab439 (antibody, V domains shown)
VH: B6 VH with E1Q, K12A, R38K, A61N, L64F, Q65K, G66D, R67K, V68A
VL: B6 VL with L11M, P15V, A43S, R45K, S50G, Y53T, Y55A, S56T
notes: humanized
B15: Ab435 (antibody, V domains shown)
VH: B7 VH with E1Q, P9A, K12A, R38K, R41P, R44G, R67K, A68V
VL: B6 VL with L11M, P15V, A43S, R45K, S50G, Y53T, Y55A, S56T
notes: humanized
B16: Ab430 (antibody, V domains shown)
VH: B6 VH
VL: B6 VL with Q8P, K24R, N28S, G30S, T31S, V33L
notes: humanized
B17: Ab427 (antibody, V domains shown)
VH: B6 VH with E1Q, K12A, R38K, A61N, L64F, Q65K, G66D, R67K, V68A
VL: B6 VL with Q8P, K24R, N28S, G30S, T31S, V33L
notes: humanized
B18: Ab428 (antibody, V domains shown)
VH: B6 VH with A61N, L64F, Q65K, G66D, R67K, V68A
VL: B6 VL with Q8P, K24R, N28S, G30S, T31S, V33L
notes: humanized
B19: Ab440 (antibody, V domains shown)
VH: B6 VH with A61N, L64F, Q65K, G66D, R67K, V68A
VL: B6 VL with L11M, P15V, A43S, R45K, S50G, Y53T, Y55A, S56T
notes: humanized
B20: Ab431 (antibody, V domains shown)
VH: B7 VH with E1Q, P9A, K12A, T16S, R38K, R41P, R44G, R67K
VL: B6 VL with Q8P, K24R, N28S, G30S, T31S, V33L
notes: humanized
B21: Ab421 (antibody, V domains shown)
VH: B7 VH with P9A, T16S, L20V, T30S, R41P, R44G, R67K
VL: B6 VL
notes: humanized
B22: Ab445 (antibody, V domains shown)
VH: B7 VH with P9A, T16S, L20V, T30S, R41P, R44G, R67K
VL: B6 VL with L11M, P15V, A43S, R45K, S50G, Y53T, Y55A, S56T
notes: humanized
B23: Ab443 (antibody, V domains shown)
VH: B7 VH with E1Q, P9A, K12A, T16S, R38K, R41P, R44G, R67K
VL: B6 VL with L11M, P15V, A43S, R45K, S50G, Y53T, Y55A, S56T
notes: humanized
B24: Ab423 (antibody, V domains shown)
VH: B7 VH with E1Q, P9A, K12A, R38K, R41P, R44G, R67K, A68V
VL: B6 VL with Q8P, K24R, N28S, G30S, T31S, V33L
notes: humanized
B25: Ab425 (antibody, V domains shown)
VH: B7 VH with P9A, Y32S, W33A, H35Q, R38K, R41P, R44G, R67K
VL: B6 VL with Q8P, K24R, N28S, G30S, T31S, V33L
notes: humanized
B26: Ab422 (antibody, V domains shown)
VH: B6 VH with A16S, T30S, R38K, L64F, R84S, D89E
VL: B6 VL
notes: humanized
B27: Ab419 (antibody, V domains shown)
VH: B7 VH with E1Q, P9A, K12A, T16S, R38K, R41P, R44G, R67K
VL: B6 VL
notes: humanized
B28: Ab433 (antibody, V domains shown)
VH: B7 VH with P9A, T16S, L20V, T30S, R41P, R44G, R67K
VL: B6 VL with Q8P, K24R, N28S, G30S, T31S, V33L
notes: humanized
B29: Ab441 (antibody, V domains shown)
VH: B6 VH with K12A, A61N, L64F, Q65K, G66D, R67K, V68A
VL: B6 VL with L11M, P15V, A43S, R45K, S50G, Y53T, Y55A, S56T
notes: humanized
B30: Ab424 (antibody, V domains shown)
VH: B7 VH
VL: B6 VL with Q8P, K24R, N28S, G30S, T31S, V33L
notes: humanized
B31: Ab444 (antibody, V domains shown)
VH: B7 VH with P9A, T16S, R41P, R44G, R67K
VL: B6 VL with L11M, P15V, A43S, R45K, S50G, Y53T, Y55A, S56T
notes: humanized
B32: Ab429 (antibody, V domains shown)
VH: B6 VH with K12A, A61N, L64F, Q65K, G66D, R67K, V68A
VL: B6 VL with Q8P, K24R, N28S, G30S, T31S, V33L
notes: humanized
B33: Ab432 (antibody, V domains shown)
VH: B7 VH with P9A, T16S, R41P, R44G, R67K
VL: B6 VL with Q8P, K24R, N28S, G30S, T31S, V33L
notes: humanized

biological target: T1, human ALK on the surface of NB1 cells (human, UniProt Q9UM73 21-1620); assay: flow cytometry titration on NB1 cells, steady state
T1 construct: ALK of NB1 cells; also called cell surface hALK; NB1 (human)
Method: KD was determined by flow cytometry. Titration of each antibody on NB1 cells for 2-4 hours at 4° C. was followed by incubation with a fluorescently-labeled secondary antibody. The normalized mean fluorescent intensity […] shown as “% Max binding” was plotted as a function of antibody concentration.
Flow cytometry was utilized to measure the affinity at steady state (KD) with which different ALK antibodies bind to ALK on the surface of NB1 cells (FIG. 3). Titration of each antibody on NB1 cells for 2-4 hours at 4° C. was followed by incubation with a fluorescently-labeled secondary antibody. The normalized mean fluorescent intensity (MFI) shown as “% Max binding” was plotted as a function of antibody concentration. The data were fit to a one site binding isotherm using GraphPad Prism, from which affinity values were derived.

T1 sequence (Q9UM73 21-1620): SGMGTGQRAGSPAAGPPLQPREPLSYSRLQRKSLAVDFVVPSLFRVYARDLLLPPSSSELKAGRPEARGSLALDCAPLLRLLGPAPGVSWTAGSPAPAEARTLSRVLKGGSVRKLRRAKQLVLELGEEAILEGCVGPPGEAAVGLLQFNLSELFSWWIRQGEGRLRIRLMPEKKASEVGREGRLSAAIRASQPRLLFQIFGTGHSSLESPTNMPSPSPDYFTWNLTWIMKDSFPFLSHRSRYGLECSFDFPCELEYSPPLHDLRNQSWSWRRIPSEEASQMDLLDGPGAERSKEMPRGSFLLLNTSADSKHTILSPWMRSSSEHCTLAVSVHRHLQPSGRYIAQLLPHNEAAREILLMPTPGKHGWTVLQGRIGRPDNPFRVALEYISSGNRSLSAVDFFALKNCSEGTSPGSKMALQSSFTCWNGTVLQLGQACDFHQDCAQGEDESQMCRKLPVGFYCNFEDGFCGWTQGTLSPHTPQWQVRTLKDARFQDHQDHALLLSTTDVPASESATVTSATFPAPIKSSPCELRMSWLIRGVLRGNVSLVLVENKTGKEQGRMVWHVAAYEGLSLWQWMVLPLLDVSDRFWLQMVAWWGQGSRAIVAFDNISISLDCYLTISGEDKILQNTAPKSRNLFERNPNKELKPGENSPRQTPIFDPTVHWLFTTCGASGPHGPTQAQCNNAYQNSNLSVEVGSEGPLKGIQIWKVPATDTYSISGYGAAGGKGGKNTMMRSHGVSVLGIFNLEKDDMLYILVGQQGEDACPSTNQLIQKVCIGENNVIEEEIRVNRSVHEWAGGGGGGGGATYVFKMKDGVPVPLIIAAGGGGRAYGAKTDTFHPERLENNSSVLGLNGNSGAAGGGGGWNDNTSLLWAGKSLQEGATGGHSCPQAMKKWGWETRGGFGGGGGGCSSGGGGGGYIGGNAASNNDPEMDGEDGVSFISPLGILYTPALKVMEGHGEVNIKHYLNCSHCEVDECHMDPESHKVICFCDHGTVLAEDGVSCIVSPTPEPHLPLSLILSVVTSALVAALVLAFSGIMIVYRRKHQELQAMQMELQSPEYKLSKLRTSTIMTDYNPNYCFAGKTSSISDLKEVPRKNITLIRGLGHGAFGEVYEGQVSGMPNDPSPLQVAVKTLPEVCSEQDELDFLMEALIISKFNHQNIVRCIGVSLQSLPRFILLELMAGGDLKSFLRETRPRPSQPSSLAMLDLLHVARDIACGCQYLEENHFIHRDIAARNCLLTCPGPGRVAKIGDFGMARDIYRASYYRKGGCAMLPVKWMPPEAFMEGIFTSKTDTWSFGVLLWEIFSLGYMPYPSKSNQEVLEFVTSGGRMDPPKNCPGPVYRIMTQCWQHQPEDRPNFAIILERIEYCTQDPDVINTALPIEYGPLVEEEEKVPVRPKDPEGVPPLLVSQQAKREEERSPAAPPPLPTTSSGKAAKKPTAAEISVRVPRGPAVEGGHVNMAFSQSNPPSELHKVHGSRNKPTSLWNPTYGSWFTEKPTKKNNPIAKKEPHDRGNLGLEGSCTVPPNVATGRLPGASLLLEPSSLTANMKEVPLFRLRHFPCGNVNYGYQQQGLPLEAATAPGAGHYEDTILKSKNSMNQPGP

Row | Kd [nM] | Binder
1 | 0.5 | B1
2 | 1.55 | B2
3 | 0.34 | B3
4 | 3.13 | B4
5 | 0.35 | B5

biological target: T2, purified ALK protein (BLitz, Table 20) (Homo sapiens (Human), UniProt Q9UM73 19-1038, limits assumed); assay: BLI (BLitz), mAb on Protein A tip, purified ALK in solution
T2 construct: also called purified ALK proteins
Method: Kinetic measurements of the monovalent affinity of the 96 humanized ALK antibody variants (Ab351-Ab446) were collected. Affinity ranking was performed using a BLitz® System (ForteBio, Menlo Park, Calif.). Humanized anti-ALK antibodies were immobilized at 0.5 mg/mL using Protein A tips. Once baseline stability was ensured, purified ALK proteins at 70 μg/mL were added. The resulting kinetic data were fit to a single binding site equation, from which the quoted monovalent KD values were derived.

T2 sequence (Q9UM73 19-1038 limits assumed): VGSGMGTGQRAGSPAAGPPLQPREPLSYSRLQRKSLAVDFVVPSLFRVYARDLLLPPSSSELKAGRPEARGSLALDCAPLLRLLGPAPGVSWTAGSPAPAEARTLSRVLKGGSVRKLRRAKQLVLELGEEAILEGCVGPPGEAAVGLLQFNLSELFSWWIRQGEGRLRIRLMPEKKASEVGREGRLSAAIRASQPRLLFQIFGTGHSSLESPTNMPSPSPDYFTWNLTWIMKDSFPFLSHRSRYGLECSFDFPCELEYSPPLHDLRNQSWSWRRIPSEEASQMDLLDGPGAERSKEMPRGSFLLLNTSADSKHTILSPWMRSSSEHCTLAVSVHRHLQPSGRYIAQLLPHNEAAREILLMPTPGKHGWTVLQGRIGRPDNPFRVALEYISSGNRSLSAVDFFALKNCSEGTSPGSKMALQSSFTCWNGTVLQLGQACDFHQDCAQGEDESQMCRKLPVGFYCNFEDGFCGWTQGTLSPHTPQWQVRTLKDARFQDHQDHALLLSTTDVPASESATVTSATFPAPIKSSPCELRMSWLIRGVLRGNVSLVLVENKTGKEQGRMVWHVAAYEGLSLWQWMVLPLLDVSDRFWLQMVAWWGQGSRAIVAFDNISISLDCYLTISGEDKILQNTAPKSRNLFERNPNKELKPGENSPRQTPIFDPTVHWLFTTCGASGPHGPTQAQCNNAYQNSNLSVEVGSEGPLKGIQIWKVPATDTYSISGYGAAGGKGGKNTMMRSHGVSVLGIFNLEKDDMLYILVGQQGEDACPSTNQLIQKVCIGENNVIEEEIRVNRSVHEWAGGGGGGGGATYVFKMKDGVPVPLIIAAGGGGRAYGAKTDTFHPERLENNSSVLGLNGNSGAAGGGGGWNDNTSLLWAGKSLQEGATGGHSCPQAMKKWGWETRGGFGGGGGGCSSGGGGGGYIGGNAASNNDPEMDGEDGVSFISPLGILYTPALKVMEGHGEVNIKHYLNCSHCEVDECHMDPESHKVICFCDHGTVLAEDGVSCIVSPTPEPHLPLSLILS

Row | Kd [nM] | Binder
6 | 131 | B6
7 | 120 | B7
8 | 219 | B8
9 | 329 | B9
10 | 868 | B10
11 | 110 | B11
12 | 393 | B12
13 | 310 | B13
14 | 138 | B14
15 | 317 | B15
16 | 211 | B16
17 | 162 | B17
18 | 253 | B18
19 | 138 | B19
20 | 252 | B20
21 | 280 | B21
22 | 521 | B22
23 | 145 | B23
24 | 266 | B24
25 | 2290 | B25
26 | 173 | B26
27 | 107 | B27
28 | 197 | B28
29 | 167 | B29
30 | 247 | B30
31 | 236 | B31
32 | 326 | B32
33 | 337 | B33
